These results are taken from patent WO2010064456A1.

The experiment has as its target T1, rhNR10 (human) (UniProt Q8NI17).
T1 sequence (looked up): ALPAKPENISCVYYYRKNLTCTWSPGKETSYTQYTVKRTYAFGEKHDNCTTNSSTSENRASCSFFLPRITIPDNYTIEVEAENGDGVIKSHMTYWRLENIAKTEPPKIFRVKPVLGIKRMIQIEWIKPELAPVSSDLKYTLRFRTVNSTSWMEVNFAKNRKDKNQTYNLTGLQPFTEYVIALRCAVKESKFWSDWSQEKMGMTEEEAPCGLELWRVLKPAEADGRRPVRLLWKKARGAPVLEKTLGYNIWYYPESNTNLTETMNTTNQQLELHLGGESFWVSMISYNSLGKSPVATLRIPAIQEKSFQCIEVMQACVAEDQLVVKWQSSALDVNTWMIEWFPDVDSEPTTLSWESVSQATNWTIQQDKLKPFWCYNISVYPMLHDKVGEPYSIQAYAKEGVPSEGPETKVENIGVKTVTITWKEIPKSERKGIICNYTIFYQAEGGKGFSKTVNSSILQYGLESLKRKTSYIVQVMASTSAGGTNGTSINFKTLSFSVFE
Nature of the experiment: SPR (Biacore T100), antibody captured on Protein A, rhNR10 as analyte; reference H0L0 (H0-M58/L0). A general note: Surface plasmon resonance follows binding to a sensor surface in real time, without labels.

B1: H0L12 (H chain H0-M58, L chain L12) (antibody, V domains shown)
VH: QVQLVQSGAEVKKPGASVKVSCKASGYTFTGYIMNWVRQAPGQGLEWMGLINPYNGGTSYNQKFKGRVTITADESTSTAYMELSSLRSEDTAVYYCARDGYDDGPYTMDYWGQGTLVTVSS
VL: DIQMTQSPSSLSASVGDRVTITCQTSEDIYSFVAWYQQKPGKAPKLLIYNAQTEAQGVPSRFSGSGSGTDFTLTISSLQPEDFATYYCQHHYDSPLTFGGGTKVEIKR
In turn, B1 came in with a fold affinity against H0L0 of 2 fold.
